For this test, the target named is cytochrome c. As to the kind of experiment: SEC. For orientation: In gel filtration, larger molecules generally elute earlier.

As usually defined, the stoichiometry N is the number of molecules, sites or subunits per partner or assembly. As to cytochrome c (natural protein), the stoichiometry N amounted to 2.

For the origin of these results see PMC2173478.
